# According to the DeepSol protein solubility set:
# Assay: soluble on expression in E. coli; label from the status in PepcDB or PDB records
row,Sequence,soluble on expression in E. coli
1,MAHHHHHHMRRIQLAFLTKLWQRRNCGSFNERALVQRTCEHIYCSSSAREQLRQLIHESSVENALRHLGEFSNDVSVLKGSAWLGQLSKAPDVVGRIAVILPQFEKWYVARKAPEKVTMHEPWDWYPKARFMRRRFVFHYGPTNSGKTHAALETLVKAKSGVYCAPLKALAAQVWKRIDASVPCDLLIGDERRFGGGAEHVSCTVEMTPIDYQIDVGVIDEVQMIADRDRGWAWTRALLGLPAREIHLCGEERAIPLIRKVLYKTHELQRLEVVPHKRLVPLEVSPSLDGDLRRIENGDTLVCFSRRAIFDMKKKLENISGMAPHCIYGSMPFSVREAQADAFNNGTRDVIEGKSGKKHVLISTDAIAYGLNMSIERIIFTSMRKFDGKQMVTLPQATILQVAGRAGRFGVLRSHKFGRCTTLDSNDFAVLCEAVNSRLPSLQKAGLLPTAEVLELYIRLREAEEGGRVTENNLASFYQRMREFSECCQASDLFFPCDLSRSLLQVAKELEAVTDLSLSDRILFCYVPLNDRGKETYDLLRAFGHDHAAGRHVVLRIDEEFERLVKQCDLVCSGDTRRAHQVLTRMEHLYRVAEMYCWLAWRFGKTFVHLETATALKERAALKMEEILQHL,not soluble
2,MAQTTINEQTLVNEQRLLAYDCFQNTNKVGLLSALEYLDFVNHLVKSNQIKYLLVPSASQTVYQHVFFDHFRFLSFDNNLLSGFGLAIRLHKEAETVFMLVEKTKQTETEIKKLLEAVKQFSGLKLVVLLVNSPFENKRTKLSYEIVKIIKKHGYQYKRYCRKNFEKKFFNTWNHQKRKQKTKNNLFFVELNSQFAFGTSMANSNSFDLSFTSFKERFNTENNLDIDVHFNVPHKYLLKNLESIKHHLQIDNNTIWKQAFINFAGQLLLYFENLQVFAQEASTLQVNAIVIKQDAYFIVEVMKGYNYDNNCICLLEANKDQNVGLTTASTNTLIGDIKQYEPCFFIEK,soluble
3,MATLKDIAIEAGVSLATVSRVLNDDPTLNVKEETKHRILEIAEKLEYKTSSARKLQTGAVNQHHILAIYSYQQELEINDPYYLAIRHGIETQCEKLGIELTNCYEHSGLPDIKNVTGILIVGKPTPALRAAASALTDNICFIDFHEPGSGYDAVDIDLARISKEIIDFYINQGVNRIGFIGGEDEPGKADIREVAFAEYGRLKQVVREEDIWRGGFSSSSGYELAKQMLAREDYPKALFVASDSIAIGVLRAIHERGLNIPQDISLISVNDIPTARFTFPPLSTVRIHSEMMGSQGVNLVYEKARDGRALPLLVFVPSKLKLRGTTR,soluble
4,MVVVYVVKIGGSLTNNAVNLLENLKKLGEKVVIIPGGGNFANVVRNLHENEKINDISAHKLATMCTDITGTYFSEISGIKTADNLFDAKRILQNESIVIILPSNIILSTDELPCSWEVTSDSFAAYIAKLLNSKTLIIATDVDGIYDKYPEGKLLNTINTKTIKGFTSVDKHLPKLISEYGIKCFVVNGNHPERINNIFKGVVDTYTKITLKLEHHHHHH,not soluble
5,MKWAYKEENNFEKRRAEGDKIRRKYPDRIPVIVEKAPKSKLHDLDKKKYLVPSDLTVGQFYFLIRKRIQLRPEDALFFFVNNVIPQTMTTMGQLYQDHHEEDLFLYIAYSDESVYGGEVEKKE,not soluble
6,MTENAEKFLWGVATSAYQIEGATQEDGRGPSIWDAFAQRPGAIRDGSTGEPACDHYRRYEEDIALMQSLGVRAYRFSVAWPRILPEGRGRINPKGLAFYDRLVDRLLASGITPFLTLYHWDLPLALEERGGWRSRETAFAFAEYAEAVARALADRVPFFATLNEPWCSAFLGHWTGEHAPGLRNLEAALRAAHHLLLGHGLAVEALRAAGARRVGIVLNFAPAYGEDPEAVDVADRYHNRFFLDPILGKGYPESPFRDPPPVPILSRDLELVARPLDFLGVNYYAPVRVAPGTGTLPVRYLPPEGPATAMGWEVYPEGLYHLLKRLGREVPWPLYVTENGAAYPDLWTGEAVVEDPERVAYLEAHVEAALRAREEGVDLRGYFVWSLMDNFEWAFGYTRRFGLYYVDFPSQRRIPKRSALWYRERIARAQT,soluble
7,GSMVENSELRKAGLKVTLPRVKILQMLDSAEQRHMSAEDVYKALMEAGEDVGLATVYRVLTQFEAAGLVVRHNFDGGHAVFELADSGHHDHMVCVDTGEVIEFMDAEIEKRQKEIVRERGFELVDHNLVLYVRKKK,soluble
8,MHHHHHHSSGRENLYFQGFRGTDPGDVVIEELFNRIPQANVRTTSEYMQSAADSLVSTSLWNTGQPFRVESELGERPRTLVRGTVLGQEDPYAYLEATDQETGESFEVHVPYFTERPPSNAIKQMKEEVLRLRLLRGIKNQKQAKVHLRFIFPFDLVKDPQKKKMIRVRLDERDMWVLSRFFLYPRMQSNLQTFGEVLLSHSSTHKSLVHHARLQLTLQVIRLLASLHHYGLVHTYLRPVDIVLDQRGGVFLTGFEHLVRDGASAVSPIGRGFAPPETTAERMLPFGQHHPTLMTFAFDTWTLGLAIYWIWCADLPNTDDAALGGSEWIFRSCKNIPQPVRALLEGFLRYPKEDRLLPLQAMETPEYEQLRTELSAALPLYQTDGEPTREGGAPPSGTSQPDEAGAAEAVTAI,soluble
9,MGSDKIHHHHHHMSSLTKMLLILDLFSVDKPIWSADEIIQYCGHSRPTGYRYVKELCDAGLLRRAEGGYSLGPRVIELDYYIRQCDPLLIACRPVMVRVAQESGCDVLLASMYGTKIMAVHQELAHETGQIAFGRGRPMPLFRGGGSKVLLASMTASQLKKLYDRYGAEIAEAGLGATWADFRKQMLKYRNDGHVVSIGELDPNAAGVAIPIPVGDALDPAALVILTTRSRFDLMEKALLVDMAMNAARQIETSMRGNREVQAKALLLS,not soluble
10,MERKLFAFDIDGTLLNSEKKALDSTREALAKLREQGHLVTLATGRSRYMAQEVIWDLDFTNYVLCNGAAAFVDHEQYYQNLLHAEALERLAQDSDQRGLGFACVGLDDIKKSNQHRAEKMEIAMNSFHFHSPAYDEHFYRQNDIYQALAFYDAEDQCTFEEEYPEFRFIRWHQHSVDVVPKDGSKSATLTYLAKRVGIDAKNIIAFGDGENDREMLSHAGIGVAMGNASPSIQKVATMVTDTNDNDGIWKALKEMKAI,not soluble
11,GSDEKRLHFGNGHLKLPGLRTYVDPHTYEDPTQTVHEFAKELDATNISIDKVVGAGEFGEVCSGRLKLPSKKEISVAIKTLKVGYTEKQRRDFLGEASIMGQFDHPNIIRLEGVVTKSKPVMIVTEYMENGSLDSFLRKHDAQFTVIQLVGMLRGIASGMKYLSDMGYVHRDLAARNILINSNLVCKVSDFGLSRVLEDDPEAAYTTRGGKIPIRWTSPEAIAYRKFTSASDVWSYGIVLWEVMSYGERPYWEMSNQDVIKAVDEGYRLPPPMDCPAALYQLMLDCWQKDRNNRPKFEQIVSILDKLIRNPGSLKIITSAAARPSNLLLDQSNVDITTFRTTGDWLNGVWTAHCKEIFTGVEYSSCDTIAKIS,soluble
12,MGSDKIHHHHHHMPKYLVFMDIDGTLLTDHQYVSERTRATIERFQKQDVLFYIATGRMYELAKIVRDKVNADVRLVTSNGAVFDGAQGRELTKLGGAAVELAYLIARRDNLPMMLFTPDMAYYTEQIPRFVARNAANFDADEVSIGYEEVKSFTQLATIEDQITNGVILSREDMSRLDSAREKLTNSKLLRLSSSNPNNIEMIPLNTDKGTAVKQIQREQHVDAAHTFVFGDGLNDVGMMAEADLSVAMGNALPQVKKVANYVTDMNYNDGLALFLEKYFAAHPLSTTK,not soluble
13,MGSDKIHHHHHHMTRKQFETLDLDNLEQNLQQAAELIAGRIRAIACDPVKQNISFEELAAIIPCDLPDEGHGPEAVIGEVARHIEPYSTRIGHPRFLAWITTSPGPAGTIGDMLCTGLNQAPLSFKGGPAATVLEEIVLGWFAGMFGMPEGWGGTIVSGGTMANLMGLTVARRVHAPQVHARGMQGLERPLVLYVSDQGHMSVTRSAVLLGIGEDNVRAVPSDSACRMIPHELEKAVQQDRRAGRLPFCVVAQAGSVTTGAVDPLPDIAAICRRENMWMHVDAAYGGAVMLADELRPLLAGIELADSVCVDPHKWFFVPLECGITLFRSREQQLETFRAKAAYLGAENPHDLKNTTFILSRANRALKVWFAFRSYGRLRIARIIRRNMELARQLYRLMCDHPEWEPLAPAPLSIVCGRYTPSAAVRGGWTEQQIDDLQLQMIEELERSGTALLTPAAVNGRAGVRVCIANHRTTPEDITLIFNTLTAIGTRIARPDEHETAGE,not soluble
14,MKHIHIIGIGGTFMGGLAAIAKEAGFEVSGCDAKMYPPMSTQLEALGIDVYEGFDAAQLDEFKADVYVIGNVAKRGMDVVEAILNLGLPYISGPQWLSENVLHHHWVLGVAGTHGKTTTASMLAWVLEYAGLAPGFLIGGVPENFGVSARLPQTPRQDPNSQSPFFVIEADEYDTAFFDKRSKFVHYRPRTAVLNNLEFDHADIFADLGAIQTQFHYLVRTVPSEGLIVCNGRQQSLQDTLDKGCWTPVEKFGTEHGWQAGEANADGSFDVLLDGKTAGRVKWDLMGRHNRMNALAVIAAARHVGVDIQTACEALGAFKNVKRRMEIKGTANGITVYDDFAHHPTAIETTIQGLRQRVGGARILAVLEPRSNTMKLGTMKSALPVSLKEADQVFCYAGGVDWDVAEALAPLGGRLNVGKDFDAFVAEIVKNAEVGDHILVMSNGGFGGIHGKLLEALR,soluble
15,MRLVIHGKNIDITDGIRSYLNQKIERATSHFQNVINEVDVHLSVARNRSTAPKQTAEVTVFVNGSVIRAEESSENLYASIDLVADKIARKLRKLKEKRQDKSRAKDTNSVVEPEVVTDLVGDRTPQLPEQVVRMKYFAMPPMTIQEALEHLEMVDHDFYVFRNRDTGEINVVYERNHGGYGVIQPRPTSNNHHHNTADAAAKATAKAGPLEHHHHHH,soluble
16,MQTQARPPVPQGPRFNHPATPQQVRRPINAPLPGQTAQIQGNRGPQPPKKKKRYADKLIQPKVRELVPESQAYMDLLAFEQKLDSTITRKKIDVQEALKRPQKIKKRLRIYISHTFIAGKEPEKEGDDASVPMWELRVEGRLLDDMQHPTVGANPRPAPKRKFSSFFKSLVIELDKDIYGPDNHLVEWHRTPQTNETDGFQVKRPGDRPVKCTILLLLDYQPMKFKLHPRLAKVLGIAAETRPRIIEALWQYIKTHKLQDPQDRDTINNDLFLEQCFGVSKMRFMEIPQRLHQLLQQPDPLVLNHIIQRPDDGQDKTSACYDIDVELEDPVKQQMANFVHNQTNANDIQLLDQKIFDLVDQINEMKLRRDFFLRFSNEPSGFIKKWVVSQNSDLKTLTESSGDGESDRYATTYSTTDTDEGVSRYMYQKIQQKRAELEQSLGIRNN,not soluble
17,SNAMKIAVINGGTRSGGNTDVLAEKAVQGFDAEHIYLQKYPIQPIEDLRHAQGGFRPVQDDYDSIIERILQCHILIFATPIYWFGMSGTLKLFIDRWSQTLRDPRFPDFKQQMSVKQAYVIAVGGDNPKIKGLPLIQQFEHIFHFMGMSFKGYVLGEGNRPGDILRDHQALSAASRLLKRSDAI,soluble
18,MKKFDGVIFDMDGLLFDTELIYYTSTQKVADAMGLPYSKEVYLDYVGISDEEVQENYRRIYASYGHDTVEEFIRRSYDDTLQEFRSGNVPLKPGVVEFLDFLDDQKIPRLVASSNVRPAIEMLLSHAGIQDRFVGIVSAEDVKRAKPDPEIFQKARQLLGTEAPKTLIFEDSFHGVSAAHSAGIPVIMVPDLLQPTEVIQEKTLHVLESLHQAPHYLK,not soluble
19,MLDIKFLRTNFEEVKAKLQHRGEDLTDFGRFEELDTRRRELLVQTEELKSKRNEVSQQISVLKREKKDAEALILEMREVGEKVKDLDNELRTVEEDLERLMLSIPNIPHESAPVGETEDDNVVARTWGEVKEFAFEPKPHWDLATDLGILDFERAGKVTGSRFVFYKGAGARLERALISFMLDLHTDEHGYEEVLPPYMVNRASMTGTGQLPKFEEDAFRIESEDYFLIPTAEVPVTNMHRDEILNKEQLPIRYAAFSSCFRSEAGSAGRDTRGLIRQHQFNKVELVKFVKPEDSYEELEKLTNDAERVLQLLELPYRVMSMCTGDLGFTAAKKYDIEVWIPSYGTYREISSCSNFEAFQARRANIRFRREPNGKPEHVHTLNGSGLAIGRTVAAILENYQQEDGTIIIPEVLRPYMGGKTVIK,soluble
